This note sets out measurements from paper PMC8175417, “Streptococcus pneumoniae pneumolysin and neuraminidase A convert high-density lipoproteins into pro-atherogenic particles” (iScience, 2021).

This data set concerns the molecule itself. The data set is described as follows: non-reducing SDS-PAGE with Western blot; hirudin blood incubated with 200 nM PLY for 1 h at 37 °C; total HDL isolated from the plasma by flotation ultracentrifugation; samples and 50 ng PLY control run under non-reducing conditions; detected with anti-penta-His antibody.

B1: Recombinant Streptococcus pneumoniae serotype 2 Pneumolysin (PLY) (natural protein, UniProt Q04IN8 1-471, looked up)
chain: MANKAVNDFILAMNYDKKKLLTHQGESIENRFIKEGNQLPDEFVVIERKKRSLSTNTSDISVTATNDSRLYPGALLVVDETLLENNPTLLAVDRAPMTYSIDLPGLASSDSFLQVEDPSNSSVRGAVNDLLAKWHQDYGQVNNVPARMQYEKITAHSMEQLKVKFGSDFEKTGNSLDIDFNSVHSGEKQIQIVNFKQIYYTVSVDAVKNPGDVFQDTVTVEDLKQRGISAERPLVYISSVAYGRQVYLKLETTSKSDEVEAAFEALIKGVKVAPQTEWKQILDNTEVKAVILGGDPSSGARVVTGKVDMVEDLIQEGSRFTADHPGLPISYTTSFLRDNVVATFQNSTDYVETKVTAYRNGDLLLDHSGAYVAQYYITWDELSYDHQGKEVLTPKAWDRNGQDLTAHFTTSIPLKGNVRNLSVKIRECTGLAWEWWRTVYEKTDLPLVRKRTISIWGTTLYPQVEDKVEND
notes: Pneumolysin (PLY), Streptococcus pneumoniae serotype 2; recombinant protein bought from Cusabio; Detected with a penta-His antibody
As to B1, the binding result is “binds”.
